Source: paper PMC9482650, “Quantitative fragmentomics allow affinity mapping of interactomes” (Nature Communications, 2022)

T1: SYNJ2BP, P57105
T1 sequence (P57105 8-110, limits assumed, looked up): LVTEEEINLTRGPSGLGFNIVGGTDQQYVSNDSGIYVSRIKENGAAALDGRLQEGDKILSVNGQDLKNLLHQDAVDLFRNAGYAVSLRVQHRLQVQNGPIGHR

T2: APBA3_1, O96018
T2 sequence (O96018 389-490, limits assumed, looked up): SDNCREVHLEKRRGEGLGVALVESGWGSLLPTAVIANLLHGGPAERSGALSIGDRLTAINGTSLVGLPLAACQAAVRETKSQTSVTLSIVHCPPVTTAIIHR

T3: RADIL, Q96JH8
T3 sequence (Q96JH8 971-1071, limits assumed, looked up): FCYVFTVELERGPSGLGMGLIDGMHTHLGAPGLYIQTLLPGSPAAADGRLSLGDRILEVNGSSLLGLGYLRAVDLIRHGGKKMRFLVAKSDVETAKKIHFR

T4: NHERF3_1, Q5T2W1
T4 sequence (Q5T2W1 4-100, limits assumed, looked up): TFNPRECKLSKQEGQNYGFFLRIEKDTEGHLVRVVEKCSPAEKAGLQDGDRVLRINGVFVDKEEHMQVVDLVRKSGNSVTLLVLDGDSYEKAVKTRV

T5: DLG3_2, Q92796
T5 sequence (Q92796 221-321, limits assumed, looked up): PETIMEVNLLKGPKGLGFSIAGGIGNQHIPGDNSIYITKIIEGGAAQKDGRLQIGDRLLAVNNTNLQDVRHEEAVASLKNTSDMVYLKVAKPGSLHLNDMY

T6: SNTG1, Q9NSN8
T6 sequence (Q9NSN8 52-150, limits assumed, looked up): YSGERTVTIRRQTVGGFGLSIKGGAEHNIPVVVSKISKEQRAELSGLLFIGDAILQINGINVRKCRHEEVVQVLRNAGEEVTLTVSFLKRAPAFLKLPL

T7: DFNB31_3, Q9P202
T7 sequence (Q9P202 811-907, limits assumed, looked up): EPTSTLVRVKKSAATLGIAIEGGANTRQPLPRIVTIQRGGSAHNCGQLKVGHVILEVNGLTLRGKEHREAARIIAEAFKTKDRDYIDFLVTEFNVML

T8: TJP3_3, O95049
T8 sequence (O95049 375-456, limits assumed, looked up): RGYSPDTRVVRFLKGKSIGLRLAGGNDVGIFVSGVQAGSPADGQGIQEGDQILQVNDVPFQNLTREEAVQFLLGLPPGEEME

T9: TX1BP3, O14907
T9 sequence (O14907 10-122, limits assumed, looked up): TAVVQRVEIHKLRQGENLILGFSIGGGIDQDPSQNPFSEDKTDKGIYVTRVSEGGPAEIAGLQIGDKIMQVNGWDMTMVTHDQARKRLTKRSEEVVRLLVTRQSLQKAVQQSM

T10: LIN7A, O14910
T10 sequence (O14910 103-200, limits assumed, looked up): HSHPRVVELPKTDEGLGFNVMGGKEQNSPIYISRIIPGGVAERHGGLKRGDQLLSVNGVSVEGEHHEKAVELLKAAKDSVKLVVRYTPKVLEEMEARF

T11: PARD3B_1, Q8TEW8
T11 sequence (Q8TEW8 196-299, limits assumed, looked up): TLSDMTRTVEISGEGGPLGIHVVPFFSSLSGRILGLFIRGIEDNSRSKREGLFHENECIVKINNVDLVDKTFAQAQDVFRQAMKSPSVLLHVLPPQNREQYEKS


Experiments:
Experiment in all cases: holdup assay
Set-up in all cases: key: below the threshold = too weak to quantify, mostly under pKd 3.1 to 4
Details in all cases: plain residues with an end cap or a label only (N-terminal biotin on a linker: ado-ado)
SYNJ2BP, P57105 = target: T1, SYNJ2BP, P57105
FRMPD2_1, Q68DX3 = target: FRMPD2_1, Q68DX3
Sequence of FRMPD2_1, Q68DX3 (Q68DX3 770-861): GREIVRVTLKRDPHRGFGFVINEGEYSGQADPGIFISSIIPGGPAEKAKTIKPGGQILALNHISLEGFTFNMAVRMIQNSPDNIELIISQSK

MAGI2_6, Q86UL8 = target: MAGI2_6, Q86UL8
Sequence of MAGI2_6, Q86UL8 (Q86UL8 1141-1229): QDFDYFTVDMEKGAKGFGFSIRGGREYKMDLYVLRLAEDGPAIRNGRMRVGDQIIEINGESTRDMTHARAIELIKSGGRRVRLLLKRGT

MAGI1_1, Q96QZ7 = target: MAGI1_1, Q96QZ7
Sequence of MAGI1_1, Q96QZ7 (Q96QZ7 1-106): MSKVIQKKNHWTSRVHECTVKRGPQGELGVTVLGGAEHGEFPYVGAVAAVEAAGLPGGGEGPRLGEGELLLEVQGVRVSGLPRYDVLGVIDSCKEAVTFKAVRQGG

APBA3_1, O96018 = target: T2, APBA3_1, O96018
DLG5_1, Q8TDM6 = target: DLG5_1, Q8TDM6
Sequence of DLG5_1, Q8TDM6 (Q8TDM6 617-713): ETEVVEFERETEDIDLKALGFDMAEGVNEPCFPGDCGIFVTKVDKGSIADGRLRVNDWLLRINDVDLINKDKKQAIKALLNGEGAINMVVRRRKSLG

FRMPD3, Q5JV73 = target: FRMPD3, Q5JV73
Sequence of FRMPD3, Q5JV73 (Q5JV73 12-100): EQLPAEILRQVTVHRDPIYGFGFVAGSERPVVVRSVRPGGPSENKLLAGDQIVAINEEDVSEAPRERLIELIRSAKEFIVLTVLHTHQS

RADIL, Q96JH8 = target: T3, RADIL, Q96JH8
FRMPD4, Q14CM0 = target: FRMPD4, Q14CM0
Sequence of FRMPD4, Q14CM0 (Q14CM0 67-160): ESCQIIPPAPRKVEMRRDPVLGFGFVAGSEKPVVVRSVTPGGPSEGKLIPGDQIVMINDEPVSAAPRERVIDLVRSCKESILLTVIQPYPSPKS

GORASP2, Q9H8Y8 = target: GORASP2, Q9H8Y8
Inadl_9, Q8NI35 = target: Inadl_9, Q8NI35
Sequence of Inadl_9, Q8NI35 (Q8NI35 1530-1615): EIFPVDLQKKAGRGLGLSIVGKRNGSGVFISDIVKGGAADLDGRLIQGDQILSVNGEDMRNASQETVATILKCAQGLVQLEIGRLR

DLG2_2, Q15700 = target: DLG2_2, Q15700
IL16_4, Q14005 = target: IL16_4, Q14005
Sequence of IL16_4, Q14005 (Q14005 1229-1329): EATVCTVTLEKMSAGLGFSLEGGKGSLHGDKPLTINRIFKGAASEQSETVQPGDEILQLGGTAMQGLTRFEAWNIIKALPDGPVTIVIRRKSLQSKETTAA

NHERF3_1, Q5T2W1 = target: T4, NHERF3_1, Q5T2W1
IL16_3, Q14005 = target: IL16_3, Q14005
Sequence of IL16_3, Q14005 (Q14005 1107-1207): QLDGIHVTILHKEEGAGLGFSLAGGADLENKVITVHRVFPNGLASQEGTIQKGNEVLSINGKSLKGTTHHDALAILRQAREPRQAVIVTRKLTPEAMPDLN

DLG3_2, Q92796 = target: T5, DLG3_2, Q92796
SNTG1, Q9NSN8 = target: T6, SNTG1, Q9NSN8
DFNB31_3, Q9P202 = target: T7, DFNB31_3, Q9P202
TJP3_3, O95049 = target: T8, TJP3_3, O95049
DLG2_3, Q15700 = target: DLG2_3, Q15700
MAGI2_3, Q86UL8 = target: MAGI2_3, Q86UL8
Sequence of MAGI2_3, Q86UL8 (Q86UL8 600-682): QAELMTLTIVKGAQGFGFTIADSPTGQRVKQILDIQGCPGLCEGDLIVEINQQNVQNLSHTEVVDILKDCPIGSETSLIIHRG

CASK, O14936 = target: CASK, O14936
Sequence of CASK, O14936 (O14936 487-570): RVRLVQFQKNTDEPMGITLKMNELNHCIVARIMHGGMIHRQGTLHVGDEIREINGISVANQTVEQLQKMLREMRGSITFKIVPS

TX1BP3, O14907 = target: T9, TX1BP3, O14907
GRIP2_5, Q9C0E4 = target: GRIP2_5, Q9C0E4
Sequence of GRIP2_5, Q9C0E4 (Q9C0E4 544-642): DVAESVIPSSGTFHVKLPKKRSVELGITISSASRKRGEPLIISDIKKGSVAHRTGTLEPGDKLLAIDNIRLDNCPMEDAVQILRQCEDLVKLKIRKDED

NOS1, P29475 = target: NOS1, P29475
Sequence of NOS1, P29475 (P29475 9-101): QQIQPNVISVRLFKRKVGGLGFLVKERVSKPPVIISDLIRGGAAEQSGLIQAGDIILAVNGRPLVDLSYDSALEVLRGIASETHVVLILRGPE

LIN7A, O14910 = target: T10, LIN7A, O14910
PARD3B_1, Q8TEW8 = target: T11, PARD3B_1, Q8TEW8

pKd (SYNJ2BP, P57105) | pKd (FRMPD2_1, Q68DX3) | pKd (MAGI2_6, Q86UL8) | pKd (MAGI1_1, Q96QZ7) | pKd (APBA3_1, O96018) | pKd (DLG5_1, Q8TDM6) | pKd (FRMPD3, Q5JV73) | pKd (RADIL, Q96JH8) | pKd (FRMPD4, Q14CM0) | pKd (GORASP2, Q9H8Y8) | pKd (Inadl_9, Q8NI35) | pKd (DLG2_2, Q15700) | pKd (IL16_4, Q14005) | pKd (NHERF3_1, Q5T2W1) | pKd (IL16_3, Q14005) | pKd (DLG3_2, Q92796) | pKd (SNTG1, Q9NSN8) | pKd (DFNB31_3, Q9P202) | pKd (TJP3_3, O95049) | pKd (DLG2_3, Q15700) | Binder | other results
below the threshold | 3.79 | below the threshold | below the threshold | below the threshold | below the threshold | below the threshold | 4.29 | 4.01 | 4.99 | 3.53 | below the threshold | 3.76 | 3.61 | below the threshold | below the threshold | below the threshold | 4.1 | below the threshold | below the threshold | QSPPNIYYKV [EFNB3, Q15768] | pKd (MAGI2_3, Q86UL8): below the threshold; pKd (CASK, O14936): below the threshold; pKd (TX1BP3, O14907): below the threshold; pKd (GRIP2_5, Q9C0E4): below the threshold; pKd (NOS1, P29475): 3.53; pKd (LIN7A, O14910): below the threshold; pKd (PARD3B_1, Q8TEW8): 3.77
4.44 | below the threshold | 4.16 | below the threshold | below the threshold | below the threshold | below the threshold | 5.81 | below the threshold | 5.38 | 4.11 | 4.73 | 3.67 | 4.28 | below the threshold | 4.75 | 3.71 | 4.74 | 3.53 | 4.58 | NASRTRITFV [MCM7, P33993] | pKd (MAGI2_3, Q86UL8): 4.99; pKd (CASK, O14936): below the threshold; pKd (TX1BP3, O14907): 4.88; pKd (GRIP2_5, Q9C0E4): below the threshold; pKd (NOS1, P29475): 3.84; pKd (LIN7A, O14910): below the threshold; pKd (PARD3B_1, Q8TEW8): below the threshold
below the threshold | below the threshold | below the threshold | 3.55 | below the threshold | below the threshold | below the threshold | below the threshold | below the threshold | 3.79 | 3.63 | below the threshold | below the threshold | below the threshold | below the threshold | 3.57 | below the threshold | below the threshold | below the threshold | below the threshold | ETSLVKGIDI [DENND5A, Q6IQ26] | pKd (MAGI2_3, Q86UL8): below the threshold; pKd (CASK, O14936): below the threshold; pKd (TX1BP3, O14907): below the threshold; pKd (GRIP2_5, Q9C0E4): below the threshold; pKd (NOS1, P29475): 3.52; pKd (LIN7A, O14910): below the threshold; pKd (PARD3B_1, Q8TEW8): 4.23
below the threshold | below the threshold | below the threshold | below the threshold | below the threshold | below the threshold | below the threshold | below the threshold | 3.69 | below the threshold | below the threshold | below the threshold | 3.84 | 5.15 | below the threshold | 3.75 | below the threshold | 4.22 | below the threshold | 3.48 | ANGLMQTSKL [SSTR5, P35346] | pKd (MAGI2_3, Q86UL8): 3.48; pKd (CASK, O14936): below the threshold; pKd (TX1BP3, O14907): 4.11; pKd (GRIP2_5, Q9C0E4): below the threshold; pKd (NOS1, P29475): below the threshold; pKd (LIN7A, O14910): below the threshold; pKd (PARD3B_1, Q8TEW8): 4.16
